Laboratory results as given in paper PMC8886374, “Click Chemistry and Multicomponent Reaction for Linker Diversification of Zinc Dipicolylamine-Based Drug Conjugates” (Frontiers in Chemistry, 2022).

How the values were obtained:
[1] = system: MiaPaca-2 human pancreatic tumor; test: In vivo anti-tumor study, MiaPaca-2 xenograft in nude mice; details: MiaPaca-2 tumor-bearing nude mice, i.v.; conjugate 4 10 mg/kg qd (5 + 5); CPT-11 40 mg/kg twice/week for 2 weeks
Source text: The number of viable cells was counted with a hemocytometer with trypan blue staining under a light microscope on the day of tumor cell inoculation. Cells were suspended with phenol red free RPMI-1640 and Matrigel in a 1:1 ratio. MiaPaca-2 suspension cells (1 × 10^6 cells) were implanted subcutaneously into the left flank of the nude mice using a 1-ml syringe (needle 24G × 1 in., 0.55 × 25 mm; TERUMO). A digital caliper was used to measure tumor sizes and dimensions as the tumor volume in mm^3 was calculated with the formula: Volume = (length × width^2)/2. Tumor-bearing mice were randomized (n = 8 per group) and mean tumor volume was approximately 170 mm^3. […] Body weight and tumor size were measured twice weekly.

[2] = system: MiaPaca-2 pancreatic cancer cells; details: MiaPaca-2, MTS, 72 h
Method: MiaPaCa-2 cells, obtained from the Bioresource Collection and Research Center, Hsinchu, Taiwan, and the Detroit 551 cells were cultured in Dulbecco’s modified Eagle’s medium (DMEM). All cells were grown in a humidified CO2 incubator at 37°C. Cell viability was determined by the MTS assay. In brief, cells were cultured (2,500–3,000 cells/well) in flat bottomed 96-well plates for 24 h. Serial-diluted conjugates were added to the cell media and incubated for 72 h. Culture medium was removed after 72 h followed by the addition of 100 μl of MTS and PMS mixture solution. In a humidified incubator at 37°C with 5% CO2, cells were then incubated for another 1.5 h for viable cells to convert the tetrazolium salt into formazan. The conversion to formazan was monitored at the 490-nm absorbance by a BioTek PowerWave-X Absorbance Microplate Reader. In this MTS assay, the recorded data were normalized to DMSO-treated and background controls. Using GraphPad Prism version 4 software, the IC50 value was the amount of each conjugate that caused a 50% reduction in cell viability in comparison to DMSO-treated controls.

[3] = In vivo pharmacokinetic study, i.v., ICR mice; set-up: species or system mouse; details: male ICR mice, i.v. 5 mg/kg; for AUCSN-38: SN-38 released from the dosed conjugate; for AUCSN-38 / AUC: 0–24 h; for AUC / clearance / Vd: mouse, in vivo, iv; for AUC: intact conjugate, read-out: AUCconjugate; for clearance / Vd: n = 3; for Vd: read-out: Vss
Method: Six-week-old ICR mice, purchased from Biolasco (Taiwan), were divided into groups of three and 100 µl of dosing solution was given intravenously. Through cardiac puncture, blood sample was collected from each sacrificed animal at time points at 0.003, 0.083, 0.25, 0.5, 1, 2, 4, 6, 8, and 24 h and stored on ice (0–4°C). Plasma was separated from the blood by centrifugation at 3,000 rpm for 15 min at 4°C in a Beckman Model Allegra 6R centrifuge. Analysis of the plasma samples were done by using liquid chromatography with tandem mass spectrometry (LC/MS/MS). A gradient system was used for the separation of analyte and IS. Ammonium acetate aqueous solution (10 mM) containing 0.1% formic acid was used as mobile phase A, while mobile phase B was acetonitrile. The gradient profile was as follows: 0.0–1.1 min, 50%B; 1.2–3.7 min, 55%B–90%B; 3.8–5.0 min, 90%B–50%B at the flow rate of 1.5 ml/min. The autosampler was programmed to inject 15 µl of sample every 5 min.
Next, to address the in vivo longevities and stabilities of U-4CR and/or “clicked” conjugates, in vivo systemic pharmacokinetic studies of conjugates 4–8 were carried out in the ICR mice. One single intravenous dose of 5 mg/kg of each conjugate was given to the mice. Plasma concentrations between the intact conjugate and the active payload (released SN-38 from the conjugate) in the circulation were measured and the pharmacokinetic parameters including clearance (CL), steady-state volume of distribution (Vss), and area under the plasma concentration curve (AUC0–24h) were determined (Table 2). Since SN-38 was the cytotoxic payload, the AUC ratio between the intact conjugate and SN-38 reflected the plasma stability, as these conjugates should be capable of uncaging the payload with higher protease activities in the tumor microenvironment. We envisioned that U-4CR could be a valuable synthetic strategy that unifies several advantageous features for bioactive SMDC in vivo. In addition to installing hydrophilic moiety to increase solubility and functional groups that modulate steady-state volume of distribution of the conjugate in vivo, a facile reactive handle for payload conjugation was also included. Indeed, we observed structure–property trends among the U-4CR-derived conjugates 5–8. Since these conjugates harnessed the same exo-BCN clicked SN-38 portion, the U-4CR products between the Zn-DPA targeting ligand and other components might contribute factors that could affect their in vivo stabilities (Table 2).

[4] = system: ICR mice; test: In vivo maximum tolerated dose determination (acute toxicity); set-up: species or system mouse; details: 5-day repeat dose, 1-week recovery monitoring
Method: The acute toxicity studies were determined in ICR male mice. In general, the studies were conducted using the dose of 10-50 mpk for dosing 5 consecutive days and the survival of the animals and their body weight were monitored for 14 days after first dosing.
However, acute toxicity is another important parameter to be monitored in the development of SMDC. […] Not limited by the components described within, the optimization of in vivo pharmacokinetic profiles of alternative ZnDPA-based SMDC, we anticipate that U-4CR with combinations of different components can lead to the construction of improved properties, such as decrease in the clearance rate and steady-state volume of distribution (Vss). Moreover, we envision employment of an imaging agent as one of the components can also furnish functional theranostic if desired.

SMILES | tumor shrinkage [1] | decrease in potency towards MiaPaca-2 (IC50 ratio) compared to SN-38 [2] [fold] | AUCSN-38 [3] | AUC [3] [ng·h/mL] | clearance [3] [mL/min/kg] | Vd [3] [L/kg] | maximum tolerated dose (MTD) [4] [mpk] | difference in the AUC for the intact conjugate versus the released SN-38 within 24 h [3] [fold]
CCc1c2c(nc3ccc(OC(=O)N4CCC(N5CCCCC5)CC4)cc13)-c1cc3c(c(=O)n1C2)COC(=O)[C@]3(O)CC [CPT-11, irinotecan] | not observed | ~350 |  |  |  |  |  | 
CCc1c2c(nc3ccc(OC(=O)c4ccc(CN(CCOCCOCCn5nnc6c5CC[C@H]5[C@@H](CC6)[C@@H]5COC(=O)N(C)CCCC(=O)N(CCCCOc5cc(CN(Cc6ccccn6)Cc6ccccn6)cc(CN(Cc6ccccn6)Cc6ccccn6)c5)C5(C(=O)NC(C)(C)C)CCOCC5)C(=O)C5(c6ccc(Cl)cc6)CCCCC5)cc4)cc13)-c1cc3c(c(=O)n1C2)COC(=O)[C@]3(O)CC [conjugate 5] |  |  | 696 ng·h/mL | 1590 | 50.2 | 18.5 |  | 
CCc1c2c(nc3ccc(OC(=O)c4ccc(CN(CCOCCOCCn5nnc6c5CC[C@H]5[C@@H](CC6)[C@@H]5COC(=O)N5CCC(C(=O)N(CCCCOc6cc(CN(Cc7ccccn7)Cc7ccccn7)cc(CN(Cc7ccccn7)Cc7ccccn7)c6)C6(C(=O)NC(C)(C)C)CCOCC6)CC5)C(=O)C5(c6ccc(Cl)cc6)CCCCC5)cc4)cc13)-c1cc3c(c(=O)n1C2)COC(=O)[C@]3(O)CC [conjugate 6] |  |  | 927 ng·h/mL | 6460 | 13.5 | 4.1 |  | 
C/C=C/C(=O)N(CCCCOc1cc(CN(Cc2ccccn2)Cc2ccccn2)cc(CN(Cc2ccccn2)Cc2ccccn2)c1)C1(C(=O)NC(C)(C)C)CCN(C(=O)OC[C@H]2[C@@H]3CCc4nnn(CCOCCOCCN(Cc5ccc(C(=O)Oc6ccc7nc8c(c(CC)c7c6)Cn6c-8cc7c(c6=O)COC(=O)[C@]7(O)CC)cc5)C(=O)C5(c6ccc(Cl)cc6)CCCCC5)c4CC[C@@H]32)CC1 [conjugate 7] |  |  | 1,309 ng/ml*h | 20700 | 8.3 | 3.6 |  | 
CCOP(=O)(CNC(=O)C1(N(CCCCOc2cc(CN(Cc3ccccn3)Cc3ccccn3)cc(CN(Cc3ccccn3)Cc3ccccn3)c2)C(=O)c2ccc(-c3ccc(O)cc3)cc2)CCN(C(=O)OC[C@H]2[C@@H]3CCc4nnn(CCOCCOCCN(Cc5ccc(C(=O)Oc6ccc7nc8c(c(CC)c7c6)Cn6c-8cc7c(c6=O)COC(=O)[C@]7(O)CC)cc5)C(=O)C5(c6ccc(Cl)cc6)CCCCC5)c4CC[C@@H]32)CC1)OCC [conjugate 8] |  |  | 1,549 ng/ml*h | 62000 | 1.3 | 0.1 | 30 | 40
